Molecular target: biotinylated Aβ1-28 peptide
Test: ELISA, biotinylated peptide (Anaspec) on streptavidin plate, 10 µg/ml mAb
Conditions: remark: other sources report otherwise

biotinylated Aβ1-28 peptide, sequence (chain, as listed by the source): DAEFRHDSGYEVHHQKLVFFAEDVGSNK

B1: mouse monoclonal antibody ACI-11-Ab-9 (antibody, V domains shown)
VL: QAVVTQESALTTSPGGTVILTCRSSTGAVTTSNYANWVQEKPDHLFTGLIGGTSNRAPGVPVRFSGSLIGDKAALTITGAQTEDDAMYFCALWYSTHYVFGGGTKVTVL
VH: QVQLQQSDAELVKPGASVKISCKVSGYTFTDHTIHWMKQRPEQGLEWIGYIYPRDGSTKYNEKFKGKATLTADKSSSTAYMQLNSLTSEDSAVYFCARDYGYAFDYWGQGTTLTVSS
modifications: here or on the partner: biotinylated (position not given)
O.D. after background subtraction (mean): 0.53 O.D.
